# Data from the DeepSol protein solubility set.
# Assay: soluble on expression in E. coli; label from the status in PepcDB or PDB records
row,Sequence,soluble on expression in E. coli
1,MDTNWLYVLLQKSTADPLERLKLGNVILNEVSQRKVSPHPKLVNDFLDVMSGWLTGSNFKVSTIGLEILDAALRTSPDVLASYYFDRCSVLIERMGDAKVQVREMAINLCLQLAYLENSSPVMLLDRLCVPGTGFQHKQWLVKVGSLNILREFLSSSFALVIQQAITLIPQLCRLTNDPNSEVRDVSTQCLIDLMVYGGKPIVAKIAATRLINEQKMATLLQRYQTTVATRGDLPPKHTITMETTPAQPSRNSLLRRSLRSPAKIIHPSASTTSFTSSARLSTPPRPTTTAAQSLSLAPQTPSPLSLPSPSGGQMSRSRDLTRSSLRAPAGISISRYRSSSCAPAAQCAITLDDFKKSFTAVPKTTIYSNHDIREKLELANLVLRNANEDWSKRANQLKLIRSIIINCDENIDRSLLISIINELADALEFSIRDLRSQIVREAAVTCSFLFETFGMEVKNVAECVLPAALAQVAVSTKVIASSAATLTVFIVQKIQTRQIFTTLSELSSSKAKEQRRQLAVVLETLIASWDLKSKQPILKQIAQLVQNAICDADGETRVAGRKAFAKLEQLHGTTADLIFRELDPAKQKMLRDGVSSSSSSLNSDRDNNNQKQQPNQQNISQKFLSQRSASAVDKSIQLSVKPQTTAIPSRPTAMPMNNRLPKSSTSTSFSAVRSSGYGQNQSTTPNRAKTPSDGFAGSSPHYTNGNNNNKSSSSSPSTSTHQTPIQRVASNLGSSSFVASLTQEQANCLQNAMNTAKDEMSKNNEDDEFLLDEIRKTPPKEVPRSYNNSPFKPSNLDSSVHRSYNNNSPFRPSSGSVGSGSNGSVQSIEHILKACTSSSLNEKRDAIVNLNQVITDPNLCQLECKNIGDTLSRLLAEGNNTLIISILDTISIFIKFQYKKLDNWLKLALGKLFAKMGADALPNVKSALSSTQKMFLTTFDPTFQLKAVCDFMCDPVHLLSPKSRLALLEYICLLFEEIWPEDPRCLERQTHLDTPYTRAAIRKMFAWMFDPRIGAILMPACERLVCALFALNAADFTMIFGELPSECRDWAYRILQLNGQQNNQKPIEKEKERFISNNNYKPCPLDNEEIEKPIMKTTYSTYESTRKEYSQTERIATENQYSTPPPPDYRTSTAHLAKNHVDQAAYIRNQLDAIRDFEKADKLNEAMANLHGMMCEGSFTLWNQFFDELLDSIYQILSTFSQSIRKKLALRILQKMCTAQATKLFDSTEIAISKVLQCACTSDDNTMGVAAEDCLRILASHLPLTRVVLISRRILSQDDDDQRGVLILKMLTRMFQDIDIEELHLIVNDVAPCFVTAYESMSSTVRKCAVFGLVALVQRVGMQRMEPHLRTLNASKLNLIDLYVGRAKSSESGASSN,not soluble
2,MDTTIGVIGNKVVHVIKENDSVKTAAEEMKKHNLGALVVIDDNDKIVGIITERDIVKVVAEGKLDAKVKDYMTRNVIGVTEDTPITDALEIMLDHGFRHLPIIGKDGKVIGIVSIRDLSKAILDPHFFQFKKEAADVKGSGYVCPVCGMEIDEYGYCGCGAGSG,soluble
3,MDVQDLKPPKPLYLERVGFRGVRRRALLETPEGPVTLDLELDVFVDLDRSKRGVHLSRNIEAVEAVVSERRARSIEGLLRSIAKELLSRHGYAEKATVRARTRYYIDLEAAGVKGREPVDVAVTVSLTRSGGERWRVAVSVKGMTVCPSAQSTIAEAEGISDPSRAPSHSQKVLLKGTVDTGKVMVRIEDLARALLQSFSAPTFTLLKKPQEARLILEAFTRPMFVEDVVREAAWRIAAIPYIPGEALLQVEAVSLESIHPHDLVAMLRSRVSEVRSLASRSV,not soluble
4,MDYIKGIAFDLYGTLFDVHSVVGRCDEAFPGRGREISALWRQKQLEYTWLRSLMNRYVNFQQATEDALRFTCRHLGLDLDARTRSTLCDAYLRLAPFSEVPDSLRELKRRGLKLAILSNGSPQSIDAVVSHAGLRDGFDHLLSVDPVQVYKPDNRVYELAEQALGLDRSAILFVASNAWDATGARYFGFPTCWINRTGNVFEEMGQTPDWEVTSLRAVVELFETAAGKAEKG,soluble
5,MDYKDDDDKLVDSLRACVFDAYGTLLDVHSAVMRNADEVGASAEALSMLWRQRQLEYSWTRTLMHQYADFWQLTDEALTFALRTYHLEDRKGLKDRLMSAYKELSAYPDAAETLEKLKSAGYIVAILSNGNDEMLQAALKASKLDRVLDSCLSADDLKIYKPDPRIYQFACDRLGVNPNEVCFVSSNAWDLGGAGKFGFNTVRINRQGNPPEYEFAPLKHQVNSLSELWPLLAKNVTKAA,soluble
6,MDYKTCPFHLVFLYSINPREPRLRKKIYYMMETESRLVVSHALIMYDYNQEGELPRMHGGYLKRFAKRATKRPDPFFQPTQIHDIDNDVSDMSECEKECPFAVPAQAADDGSLYLQLLDMEFWNDRNRQLHFLVNKPSLIESLGCLNNRVPALPPATTGKAAFVFFIDGLEVDARNLTCDGLVPWSENTSTNPHGITKRPKSAKQALALNREGQLRIWKTPSSHRSDLIEFQLHVYTATLPRCPRLRKKVTYVLKNGHQIGNAMIIYWYTEPGEMPAPVNVSTMSSAQEYSLQRLPPHIREDVLRLLARMTPAEVAKVILEKYGIQVNTKMLYYVRRREIMAATDGIRDAEDDHDPYELKNEMIVSAAAGDFVDDWTTDTAGASAEASEGGSRKKNVHLEEMLDERELQVSHTEEIQQPSSSQQQIQLPYRKAKYQEPKNFGQQSSGLPLSQSGMARGTSRNEALFRIAKNSFGSATDNETFDLLFKMLFEKSEHRLLQIVNHTFGVEIMAGEEMDNGEMHLHMAPDGAIVEEIVEEEVIGTVGDDVNLEEEVHENEPKVYTGEKQINDVLEQVVVEEPNHHDDHPPHELLEEDALVNPDDVIVDPNQLIIHDDDDQRQQNIQ,not soluble
7,MDYQTFEKVNKFINVKAYIFFLTQELKQQYKLSLKELLILAYFYYKNEHSISLKEIIGDILYKQSDVVKNIKSLSKKGFINKSRNEADERRIFVSVTPIQRKKIACVINELDKIIKGFNKERDYIKYQWAPKYSKEFFILFMNIMYSKDFLKYRFNLTFLDLSILYVISSRKNEILNLKDLFESIRFMYPQIVRSVNRLNNKGMLIKERSLADERIVLIKINKIQYNTIKSIFTDTSKILKPRKFFF,not soluble
8,MEAQAQGLLETEPLQGTDEDAVASADFSSMLSEEEKEELKAELVQLEDEITTLRQVLSAKERHLVEIKQKLGMNLMNELKQNFSKSWHDMQTTTAYKKTHETLSHAGQKATAAFSNVGTAISKKFGDMSYSIRHSISMPAMRRK,soluble
9,MEARTTDLSDLYPEGEALPMVFKSFGGRARFAGRVRTLRVFEDNALVRKVLEEEGAGQVLFVDGGGSLRTALLGGNLARRAWEKGWAGVVVHGAVRDTEELREVPIGLLALAATPKKSAKEGKGEVDVPLKVLGVEVLPGSFLLADEDGLLLLPEPPSGVRSGG,soluble
10,MEASKEFPGFPNDFHAFEVSPIPFDINSKELSLKNHSNRAILFKVKCTNNKRIRIEECSDILKPGNETTATIKKLVDTVDGDSLYVIYTLVGKEWHNERMSAWRCWERAKKQAVPTQCISVPIKRSSECEKKEKKYEKEKTKSED,soluble
11,MEASSSAQAKIADMREKLGREVRVFETSSISQRPSQVSSADDESDDFYEFTPADFYRLLATKKEDKSLKTRKIREAEEAARRSKLTKAVIRVRFPDNHTLEATFHPSEKIQGLIDLVKRVVAHPDVPFYLYTTPPKKQIKDFSQDFYSAGFVPGAIVYFSNDQPKDDGGSSTPYLNEEILSLKDLEAMTKAVEPVESSSEPATVDSSAVPVEHERKSTEKKTTKPKWFKM,soluble
12,MEAVRPDSCESGPAAPRAEERPAPEARVHFRVTRFIMEAGVKLGMQSIPIATACTIYHKFFCEINLDAYDLYLVAMSSIYLAGKVEEQHLRTRDIINVSHRYFNPGSEPLELDSRFWELRDSIVQCELLMLRVLRFQVSFQHPHKYLLHYLISLKNWLNRYSWQRTPISVTAWALLRDSYHGGLCLRFQAQHLAVAVLYLALQVYGVEVPAEGEAEKPWWQVFSDDLTKPIIDNIVSDLIQIYTMDTEIP,not soluble
13,MEAWKKKKGLFKGARYQCTLEPIEREVLGNLAANISEVLISRAQSAPKDELAELTGMGGGHTEAPEDPGLARLLPDFEMQGDEEFDGDNSLLRSLHENDITRAKLANLQTIGQALGPDGSVFVTVTEEEAQAWVAGLNDIRLYLASSEVQDTEDRDALVEWLAFAQESLLTAMMGSLD,not soluble
14,MEAYNVQNLYQCLNCDDYHLCNGSLNCDPLVDREGIVCTVTGKYIQCNVRELEHHHHHH,soluble
15,MEDEIRKAAEILAKSKHAVVFTGAGISAESGIPTFRGEDGLWRKYDPEEVASISGFKRNPRAFWEFSMEMKDKLFAEPNPAHYAIAELERMGIVKAVITQNIDMLHQRAGSRRVLELHGSMDKLDCLDCHETYDWSEFVEDFNKGEIPRCRKCGSYYVKPRVVLFGEPLPQRTLFEAIEEAKHCDAFMVVGSSLVVYPAAELPYIAKKAGAKMIIVNAEPTMADPIFDVKIIGKAGEVLPKIVEEVKRLRSEK,soluble
16,MEDLEEDVRFIVDETLDFGGLSPSDSREEEDITVLVTPEKPLRRGLSHRSDPNAVAPAPQGVRLSLGPLSPEKLEEILDEANRLAAQLEQCALQDRESAGEGLGPRRVKPSPRRETFVLKDSPVRDLLPTVNSLTRSTPSPSSLTPRLRSNDRKGSVRALRATSGKRPSNMKRESPTCNLFPASKSPASSPLTRSTPPVRGRAGPSGRAAASPPTPIRSVLAPQPSTSNSQRLPRPQGAAAKSSSQLPIPSAIPRPASRMPLTSRSVPPGRGALPPDSLSTRKGLPRPSTAGHRVRESGHKVPVSQRLNLPVMGATRSNLQPPRKVAVPGPTR,soluble
17,MEDRNITEEDRVCPQLPEFDEQANVQTDLKKMKPGDAIGKNWKVVKAIQSDKGFNTIYVAEHVQKKKKMAAVKVERKTEAIKMLQFELFVLLTVEKKNQCKQFCKLFEKGNEKEYNWIAITLCGKSLRALRKNQPTGKLTVACGLSVAQQCLKGLEELHRMGFIHRNVAPSVFAIGRYTGDNQSDLRNIYILDFGFAHQYMIKDGTLKPPSAHPWKYVGSLRHMPRAAYSKVEFSRMEDLEMWFYMSVELVKGCLPWAHLKKPKEVHDYQKLCRNGLQMREMLGGLPPEFVDIMQIVDKLSFTDTPNYTEIYGLLTNAILFSGKNEFPYDWEEAEINEFKNPQKPSVEQAT,not soluble
18,MEDTIPAMPQWDKIIYNVLHGSTMKGITSLKKTSVWNEATPVCRESNREAIRRRFTRGLLGRLLQRTPLESCTPVFLPAAQSWPTLEMVPAGALLPGLSEGGEGAKNGSVTTGFFEFTESLPAVGLQRVLPVLPKSAWA,not soluble
19,MEDVWLQAQSNLAKVLTHQTFTTWIEPIRFAGAHKNTLLLEAPNQFIRDRVRESYLPMILESVRSLTDSHFQVELQVAARQQEKTAKSPRKSHTEDELGPVESEKCAPAEFSTNLNAKYTFDTFVCGGSNQFAHAAALSVANNPAGKYNPLFIYGGVGLGKTHLLTAIGNQVLTKNRKARVCFYTSEKFMNELINCLRYQKMEQFRNKFRKMDLLLIDDIQFIAGKERTQEEFFHTFNALYESHKQIVVTSDKFPKDIPGLEERLRSRFEWGLIADIQPPDTETKVAILSKKADSDGIRLPDDVALFLASSASTNVRELEGMLIRLGAVASLTGKNITLDMAREVLKDIIVDKTKEVTVEMIQKYVADHFNIKVAELKSDKRLKALVVPRQIAIYLCRDLTKASYPDIGEKFGGKDHSTIIHSVKKVDKLLSQDFELKSTIETLRKGLLNLEHHHHHH,soluble
20,MEEELRVRLNDHQVSKVFPVKPKSTANVVAVMEELVARRKLMKCVSNMEEGELGMLLGFLQRYCTVQRYSGLLMGLTKKVLETRAEDIKGKNEFKGLLRNLKREVNQEIRIQQSLLEIQGVIAPLMRIAGRS,not soluble
